The values that follow come from article PMC5374406, “The Phosphorylation of PDX-1 by Protein Kinase CK2 Is Crucial for Its Stability” (Pharmaceuticals, 2016).

The target of test [1] is PCIF1 (human; SPOP) (UniProt O43791). In words: GST pull-down, 35S autoradiography. The settings on record: sites T231,S232.
The target in test [2] is PCIF1 (endogenous, MIN6) (UniProt Q6ZWS8). In words: Duolink proximity ligation assay. The settings on record: reference: DMSO, sites T231,S232.
For test [3], the target named is T1, GST-PDX-1 T231D/S232E (CK2-phosphomimicking mutant) (mouse, UniProt P52946 1-284, T231D | S232E).
T1 construct: 'Full-length mouse PDX-1' is said of the FLAG construct; also called D/E mutant; source: bacterial expression vector pGEX-4T-1, purified
T1 sequence (P52946 whole entry T231D/S232E): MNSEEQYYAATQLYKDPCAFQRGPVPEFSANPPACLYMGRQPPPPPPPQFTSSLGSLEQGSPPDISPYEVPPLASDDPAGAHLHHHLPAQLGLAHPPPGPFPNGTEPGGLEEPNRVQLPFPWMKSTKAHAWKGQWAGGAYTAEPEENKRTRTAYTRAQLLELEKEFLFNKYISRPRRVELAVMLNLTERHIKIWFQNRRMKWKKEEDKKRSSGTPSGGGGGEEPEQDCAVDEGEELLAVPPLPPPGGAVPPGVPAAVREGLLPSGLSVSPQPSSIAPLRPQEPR
Kind of test: pull-down; 10 ug purified GST-tagged PDX-1 immobilised on GSH-sepharose in PBS-T (PBS pH 7.4, 1% Tween 20), incubated 2 h at 4 °C with 7.5 uL in vitro translated [35S]-methionine labeled PCIF1; SDS-PAGE, Coomassie and autoradiography. The settings on record: one partner purified.

For the molecule “PDX-1 (from UniProt P52946) GST-PDX-1 T231D/S232E”, the fold change in test [1] (reference: GST-PDX-1 T231A/S232A) and in test [1] (reference: GST-PDX-1 wild type) was 1.5 each time.
As for “PDX-1 (from UniProt P52946) 10 µM CX-4945, 5 mM glucose”, in test [2] (5 mM glucose), the percent of reference result was “weaker; reference 100”.
Consider “PDX-1 (from UniProt P52946) 10 µM CX-4945, 25 mM glucose”, for which the percent of reference result in test [2] (25 mM glucose) is listed as “weaker; reference 100”.

B1: PCIF1 (human), in vitro translated and [35S]-methionine labeled, from pET28a-PCIF-1 (natural protein, UniProt O43791 1-374, looked up)
chain: MSRVPSPPPPAEMSSGPVAESWCYTQIKVVKFSYMWTINNFSFCREEMGEVIKSSTFSSGANDKLKWCLRVNPKGLDEESKDYLSLYLLLVSCPKSEVRAKFKFSILNAKGEETKAMESQRAYRFVQGKDWGFKKFIRRDFLLDEANGLLPDDKLTLFCEVSVVQDSVNISGQNTMNMVKVPECRLADELGGLWENSRFTDCCLCVAGQEFQAHKAILAARSPVFSAMFEHEMEESKKNRVEINDVEPEVFKEMMCFIYTGKAPNLDKMADDLLAAADKYALERLKVMCEDALCSNLSVENAAEILILADLHSADQLKTQAVDFINYHASDVLETSGWKSMVVSHPHLVAEAYRSLASAQCPFLGPPRKRLKQS
modifications: [35S]-methionine labeled
notes: PCIF1 / SPOP, human cDNA cloned into the BamH1/Xho1 sites of pET28a; wild-type form; The tags are inferred from the vector and cloning sites; also called SPOP; source: in vitro translated (Promega) from pET28a-PCIF-1
For the molecule B1, the “fold binding against wild-type or the AA mutant” value in test [3] amounted to 1.5 fold.
